A word on the IC50: it is the concentration that inhibits the measured activity by half. A higher IC50 goes with weaker potency in that assay.

Experiment [1] concerns the target T1, human DR3 with the death domain deleted (ΔM339-P417 of SEQ ID NO:1), expressed on CHOK1SV cells (human, UniProt Q93038 25-338).
T1 construct: also called truncated DR3; hDR3 expressing CHO cells
T1 sequence: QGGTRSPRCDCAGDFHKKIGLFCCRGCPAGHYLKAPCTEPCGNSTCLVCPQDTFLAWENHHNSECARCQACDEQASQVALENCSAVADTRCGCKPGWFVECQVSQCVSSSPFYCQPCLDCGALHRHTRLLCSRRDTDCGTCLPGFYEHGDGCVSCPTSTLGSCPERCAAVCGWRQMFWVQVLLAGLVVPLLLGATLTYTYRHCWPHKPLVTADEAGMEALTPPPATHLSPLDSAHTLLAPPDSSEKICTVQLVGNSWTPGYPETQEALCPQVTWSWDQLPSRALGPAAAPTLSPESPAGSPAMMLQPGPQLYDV
Briefly: FACS on DR3 expressing cells; competitor Mab 0121.

Experiment [2] concerns the target T2, human DR3 (full length, on cells) (human, UniProt Q93038 25-417).
T2 sequence: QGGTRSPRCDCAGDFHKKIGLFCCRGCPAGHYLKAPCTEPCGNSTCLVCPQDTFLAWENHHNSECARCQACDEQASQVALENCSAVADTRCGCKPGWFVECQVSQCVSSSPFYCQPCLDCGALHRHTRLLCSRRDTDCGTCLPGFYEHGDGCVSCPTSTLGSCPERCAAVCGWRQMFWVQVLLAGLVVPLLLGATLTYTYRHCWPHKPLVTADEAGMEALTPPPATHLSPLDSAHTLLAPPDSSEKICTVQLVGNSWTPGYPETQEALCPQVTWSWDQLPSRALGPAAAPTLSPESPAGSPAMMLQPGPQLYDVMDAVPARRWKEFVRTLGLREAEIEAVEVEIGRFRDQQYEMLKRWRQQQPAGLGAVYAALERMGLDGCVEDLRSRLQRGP
Briefly: cell-based or functional assay.

A further experiment addresses T3, DR3 (ECD)-Fc (human).
T3 construct: ECD of DR3, a linker with a TEV cleavage site and the Fc part of human IgG4; dimeric fraction used; also called DR3-Fc; hDR3-Fc
Briefly: HX-MS with hDR3 ECD-Fc. How it is done:
The Leap robot was equipped with two temperature controlled stacks maintained at 20° C. for buffer storage and HX reactions and maintained at 2° C. for storage of protein and quench solution, respectively. The Waters HDX system furthermore contained a temperature controlled chamber holding the pre- and analytical columns, and the LC tubing and switching valves at 1° C. A separately temperature controlled chamber holds the pepsin column at 25° C. […] The resulting peptides were trapped and desalted on a VanGuard pre-column BEH C18 1.7 μm (2.1×5 mm (Waters Inc.)). Subsequently, the valves were switched to place the pre-column inline with the analytical column, UPLC-BEH C18 1.7 μm (1×100 mm (Waters Inc.)), and the peptides separated using a 9 min gradient of 10-40% B delivered at 200 μl/min from the nanoAQUITY UPLC system (Waters Inc.). The mobile phases consisted of A: 0.1% formic acid and B: 0.1% formic acid in CH₃CN. The ESI MS data, and the separate elevated energy (MS^E) experiments were acquired in positive ion mode using a Synapt G2 mass spectrometer (Waters Inc.).
All HX reactions were carried out at 20° C. and contained […] hDR3 in the absence or presence of […] Fab thus giving a 5 fold molar excess of Fab. […]

The target in experiment [3] is T1, human DR3 with the death domain deleted …. Briefly: flow cytometry competition: Fab vs TL1A on hDR3-expressing CHO cells.
The target is the same in experiment [4]. Briefly: FACS on DR3 expressing cells; competitor Mab 0107.

B1: 0148 (chimeric Fab of 5F13, human IgG4 constant domain, hinge Cys->Ser) (Fab, V domains shown)
VH: EVQLVESGGGLVKPGGSLKFSCAVSGFTFSSYVMSWVRQTPEKRLEWVAAISSDSTYTYYLDSVKGRFTISRDNAKNTLYLQMSSLRSEDTAMYYCARQTRSDAMDYWGQGTSVTVSS
VL: DIVLTQSPASLAVSLGQRATISCRASESVDNYGNSFMHWYQQKPGQPPKLLIYRASNLESGIPARFSGSGSRTDFTLTINPVEADDVAIYYCQQSNEDPLTFGAGTKLELKR
notes: IgG4-Ser, chimeric
Turning to B1, the “molar ratio Mab/Fab from which the Fab inhibits fully” value in experiment [1] is 3 Fab per Mab (molar ratio Mab/Fab 1:n). In experiment [2], the “max % inhibition of TNFalpha, donor 1” value stood at 9.5% and the “max % inhibition of TNFalpha, donor 2” value was -8.5%. Also, in the experiment with DR3 (ECD)-Fc, the binding result is reported as “binds”. Besides, in experiment [3], the IC50 was found to be 9.22 nM and the max percentage inhibition was 33%. Moreover, in experiment [4], the “molar ratio Mab/Fab from which the Fab inhibits” value is 100 Fab per Mab (molar ratio Mab/Fab 1:n).

(Values after US20170305994A1 (Novo Nordisk, published 2017).)
